For one experiment, the system named is melanoma (WM-164) cells. Briefly: 3H-thymidine uptake mitogenesis assay. Type of experiment: cell-based, human. The method, then:
(§1) For phosphotyrosine blotting and mitogenesis assays, cells in serum-containing media were seeded overnight in 24-well plates at a density of 0.5×10^5 cells/mm^2 corresponding to 20-30% confluency after cell attachment, incubated in serum-free media without supplements for 24 h (phosphotyrosine) or washed with serum-free media without supplements three times (mitogenesis) and incubated with lacritin (1-1000 nM), or positive controls EGF (1.6 nM) and 10% fetal bovine serum, or negative controls bovine serum albumin or no additive in serum-free media without supplements for the indicated times (phosphotyrosine) or 30 h (mitogenesis). For phosphotyrosine assays, cells were extracted in 1% NP40 containing sodium vanadate (2 mg/ml), DTT (5 mg/ml), protease inhibitors, 50 mM HEPES, 100 mM NaCl, and 2 mM EDTA; then separated by 10% SDS PAGE, transferred and blotted. The following antibodies (Cell Signaling Technology, Beverly Mass.) were tested: antiphosphotyrosine antibody (P-Tyr-100), anti-phospho-PKC αβII, anti-PKCα, anti-phospho-PKCδ, anti-phospho-PKC (pan), anti-p44/42 MAPK, anti-phospho-Raf, anti-phospho-SAPK/JNK, anti-phospho-p38 Map kinase, anti-phospho-Raf, anti-phospho-Akt, anti-phospho-CaMKII, anti-phospho-MARCKS, or anti-tubulin (loading control). After washing, bound antibodies were detected with peroxidase-labeled secondary antibody and ECL. With the exception of at least nine proteins in the P-Tyr-100 blot (FIG. 1), none of the effectors tested above appeared to be phospho-activated during lacritin signaling (not shown). For mitogenesis (Hussaini et al., '00), [^3H]-thymidine (2 mCi/ml) was added for the next 6 h. Incorporation was stopped with ice-cold phosphate buffered saline and followed by addition of cold and then room temperature trichloracetic acid (10%) for 10 min each, washing of cells with phosphate buffered saline, solubilization with 1 N sodium hydroxide, neutralization with 1 N hydrochloric acid, addition of scintillation fluid and then quantitation in a scintillation counter. To deplete PKCα in HSG cells, a pool of four PKCα-specific siRNAs (100 nM) were transfected via LipofectAMINE 2000 in Opti-MEMI Reduced Serum Medium (Invitrogen, Grand Island N.Y.) without serum and antibiotics according to manufacturer's instructions. Each of the four siRNAs was also individually transfected. In negative controls, cells were transfected with a pool of four lamin-specific siRNAs (Upstate LLC, Charlottesville Va.; Dharmacon Inc, Lafayette Colo.). Seventy-two hours post-transfection, mitogenesis was assessed by co-addition of 10 […] lacritin and [^3H]-thymidine (2 mCi/ml) (Amersham, Piscataway N.J.) for 24 hrs. PKCα depletion was confirmed by Western blotting.

The test system of a further experiment is cervical (HeLa) cells. Put plainly: 3H-thymidine uptake mitogenesis assay. Type of experiment: cell-based, human. On the procedure: as §1
Experiment [1] relates to erythroleukemia (K-562) cells. Briefly: 3H-thymidine uptake mitogenesis assay. Type of experiment: cell-based, human. The method, then:
as §1

Experiment [2] relates to non-invasive breast carcinoma (MCF7) cells. Put plainly: 3H-thymidine uptake mitogenesis assay. Type of experiment: cell-based, human. The method, then:
as §1

Experiment [3] relates to embryonic kidney (HEK) cells. Briefly: 3H-thymidine uptake mitogenesis assay. Type of experiment: cell-based, human. On the procedure:
as §1

Experiment [4] concerns foreskin fibroblast (HS68) cells. Put plainly: 3H-thymidine uptake mitogenesis assay. Type of experiment: cell-based, human. The method, then:
as §1

In a further experiment the test system is melanoma (SK-MEL) cells. Briefly: 3H-thymidine uptake mitogenesis assay. Type of experiment: cell-based, human. On the procedure: as §1
The subject of experiment [5] is fibrosarcoma (HT1080) cells. Put plainly: 3H-thymidine uptake mitogenesis assay. Type of experiment: cell-based, human. The method, then:
as §1

Another experiment has as its system 48 kDa band in HSG cells. Briefly: Tyrosine phosphorylation of 48 kDa band, HSG cells. Type of experiment: cell-based, human. The method, then: Freshly isolated rat lacrimal acinar cells, and HSG (human salivary gland) ductal and HCE (human corneal epithelial) cell lines were used to study lacritin function. For secretion studies, rat acinar cells were plated serum-free overnight on wells co-coated with 0.05 μM laminin 1 (to ensure adhesion) and 0 to 20 μM lacritin, or alternatively with laminin-1 (0.05 μM) and treated the next day with serum-free medium containing 0 to 162 ng/ml of soluble lacritin for four hours. Unstimulated and stimulated (carbachol 10^−4 M/VIP 10^−8 M) secretions were then collected, assessed (peroxidase assay) and normalized to μg cellular DNA. To study tyrosine phosphorylation, overnight serum-free cultures of both rat lacrimal acinar and HSG cells were washed and treated with 10 ng/ml of soluble lacritin for 0.5, 2.5, 10, and 30 minutes. Py(20) anti-phosphotyrosine antibody immunoprecipitation of cell lysates was then examined in Western blots of 7% SDS PAGE gels using Py(20) and ECL for detection. […] Using an inverted Zeiss 510 LSM for visualization, 50 second baseline images were first recorded. While the laser was running, lacritin was added (final concentration 4 and 40 ng/ml) and the response continually monitored every 786 msec for a minimum of 200 sec.

The next experiment has as its target T1, syndecan-1 (Homo sapiens, UniProt P18827).
T1 construct: expressed in transfected cells; host or cells: HEK293 (syndecan-1); E. coli ER2566 (lacritin-intein)
T1 sequence (P18827 23-310): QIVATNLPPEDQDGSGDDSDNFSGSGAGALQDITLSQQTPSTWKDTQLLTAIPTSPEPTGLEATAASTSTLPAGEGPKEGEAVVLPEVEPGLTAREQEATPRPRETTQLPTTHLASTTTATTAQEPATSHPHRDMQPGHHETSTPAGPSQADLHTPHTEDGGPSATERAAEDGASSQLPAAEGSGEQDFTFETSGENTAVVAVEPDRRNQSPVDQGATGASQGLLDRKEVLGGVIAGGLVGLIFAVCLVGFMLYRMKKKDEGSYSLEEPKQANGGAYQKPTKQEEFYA
Briefly: Pull down binding assay with lysates of transfected cells. From the text: Biotinylated cell surface proteins were applied to lacritin affinity columns. After washing extensively in physiological salt-containing buffer, bound protein was eluted with 1 M NaCl, and identified with avidin-peroxidase using an ECL blot method. In controls, columns lacking lacritin were used. […] 293T cells stably transfected with human syndecan-2 or −4 were kindly provided by Dr. Atsushi Utani (Chiba University). A series of lacritin C-terminal and N-terminal deletion mutants were generated. Pull down binding assays involved incubation of intein-tagged lacritin or intein deletion mutants with lysates of untransfected or transfected cells followed by precipitation and SDS PAGE. Immunolocalization of syndecan-1 in human lacrimal glands was performed using anti-human syndecan-1 antibody (CD138).

B1: lacritin: recombinant human lacritin from E. coli; mature 119 residue fragment (SEQ ID NO:10) of native lacritin SEQ ID NO:4 (protein, listed as Homo sapiens)
chain: EDASSDSTGADPAQEAGTSKPNEEISGPAEPASPPETTTTAQETSAAAVQGTAKVTSSRQELNPLKSIVEKSILLTEQALAKAGKGMHGGVPGGKQFIENGSEFAQKLLKKFSLLKPWA
As for B1, the mitogenesis entry in the experiment with melanoma (WM-164) cells was “not mitogenic”; in the experiment on cervical (HeLa) cells it was “not mitogenic”; in [1], “not mitogenic”; in [2], “not mitogenic”; in experiment [3] it was “mitogenic”; in experiment [4] it was “not mitogenic”. The mitogenesis result (in the experiment on melanoma (SK-MEL) cells; in [5]) was “not mitogenic” each time. Further, in the experiment with 48 kDa band in HSG cells, the “tyrosine phosphorylation of a 48 kDa band” value is “promoted the transient tyrosine phosphorylation”. Moreover, the “binding to mammalian syndecan-1” value in the experiment with syndecan-1 was “bound”.

Values taken from patent US7648964B2, “Use of lacritin in promoting ocular cell survival” (University of Virginia Patent Foundation, priority 2004, dated 2010).
